We go through 1 substance from paper PMC3857245.

This test deals with 3xFLAG-tagged rat KCNQ2 (rat) (UniProt O88943). Kind of test: co-IP; KCNQ2-CaM complex immunoprecipitated in calcium (–) condition, the resin then exposed to 500 µM Ca2+; time course of CaM left on KCNQ2.
Chain of UniProt O88943 (O88943 whole entry): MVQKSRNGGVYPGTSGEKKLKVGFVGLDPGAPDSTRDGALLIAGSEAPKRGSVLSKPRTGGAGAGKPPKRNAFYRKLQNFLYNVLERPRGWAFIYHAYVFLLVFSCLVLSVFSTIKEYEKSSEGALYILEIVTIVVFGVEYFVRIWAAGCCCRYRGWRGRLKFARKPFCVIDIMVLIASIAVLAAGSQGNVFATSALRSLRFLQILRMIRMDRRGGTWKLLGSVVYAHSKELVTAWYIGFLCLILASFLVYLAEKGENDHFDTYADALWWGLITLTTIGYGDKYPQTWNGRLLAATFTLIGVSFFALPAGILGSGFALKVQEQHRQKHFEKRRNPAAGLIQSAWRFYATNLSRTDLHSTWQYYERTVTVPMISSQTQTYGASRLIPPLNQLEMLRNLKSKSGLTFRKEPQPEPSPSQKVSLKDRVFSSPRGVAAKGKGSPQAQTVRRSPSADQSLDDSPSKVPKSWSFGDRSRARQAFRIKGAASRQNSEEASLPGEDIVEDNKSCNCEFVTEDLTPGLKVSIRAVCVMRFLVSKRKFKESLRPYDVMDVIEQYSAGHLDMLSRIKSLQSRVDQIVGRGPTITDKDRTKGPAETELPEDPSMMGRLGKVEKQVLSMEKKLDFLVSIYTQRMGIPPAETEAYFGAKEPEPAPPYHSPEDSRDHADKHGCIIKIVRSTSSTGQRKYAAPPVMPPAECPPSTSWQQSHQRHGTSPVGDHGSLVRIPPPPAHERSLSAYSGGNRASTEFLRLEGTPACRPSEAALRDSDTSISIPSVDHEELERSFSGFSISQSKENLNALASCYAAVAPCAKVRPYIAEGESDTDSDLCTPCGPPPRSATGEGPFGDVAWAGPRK

“V5-epitope tagged calmodulin (from UniProt P0DP23 1-149) (natural protein)”: the time constant of calcium-induced dissociation stood at 20.7 s.
